The text below walks through data of patent US20050186659A1 (published 2005).

This data set deals with the molecule itself. Description: analytical ultracentrifugation (sedimentation velocity) in buffer with 0.4-0.6 M GuHCl; self-association of the enzyme. The method, then: Analytical ultracentrifugation. Velocity sedimentation experiments were performed using an XL-A analytical ultracentrifuge (Beckman Instruments, Palo Alto, Calif.) with an An60-Ti rotor. 11β-HSD1 in 50 mM Tris-HCl, pH 8.0: 1 mM TCEP and increasing concentrations of GuHCl (0-2.0 M) was centrifuged at 40,000 rpm. Solutions containing the same components except the protein were used as references. Scans were collected every 5 min at 280 nm absorption wavelength and the radial distance of the sedimenting boundary r was determined. The sedimentation coefficient was calculated by the gradient of the plot of ln(r) vs ω²t, where ω was the angular velocity and t was the time.
The association state of 11β-HSD1 was investigated by analytical ultracentrifugation. […] When incubated in buffer containing 0.4 M GuHCl, the guinea pig enzyme appeared to be constituted by two major populations (FIG. 5B). This behavior was even more pronounced at 0.6 M GuHCl (FIG. 5C). A molecular weight of approximately 60 kDa can be derived from the sedimentation coefficient of the larger peak, corresponding to a dimeric 11β-HSD1 population, while the second peak may originate from a smaller portion of tetrameric enzyme.

B1: recombinant guinea pig 11β-hydroxysteroid dehydrogenase type 1 (11β-HSD1), catalytic domain with His6 tag (enzyme)
chain: MGSSHHHHHHSSGLVPRGSHMNEKFRPEMLQGKKVIVTGASKGIGREIAYHLAKMGAHVVVTARSKEALQKVVARCLELGAASAHYIAGSMEDMTFAEEFVAEAGNLMGGLDMLILNHVLYNRLTFFHGEIDNVRKSMEVNFHSFVVLSVAAMPMLMQSQGSIAVVSSVAGKITYPLIAPYSASKFALDGFFSTLRSEFLVNKVNVSITLCILGLIDTETAIKATSGIYLGPASPKEECALEIIKGTALRQDEMYYVGSRWVPYLLGNPGRKIMEFLSAAEYNWDNVLSNEKLYGRWA
notes: also called guinea pig 11β-HSD1; guinea pig enzyme
Turning to B1, the binding result is recorded as “binds”.
